# Source: PMC6208443 (2018)
# Square brackets hold non-standard residues; d marks the D form. Ends that are not written are not given here. Lys(Me3) = C[N+](C)(C)CCCC[C@H](N)C(=O)O; Lys(Me2) = CN(C)CCCC[C@H](N)C(=O)O; Lys(Me) = CNCCCC[C@H](N)C(=O)O
# T1: RsAGDP1 AGD12 (residues 26–180) (Raphanus sativus)
# T1 chain: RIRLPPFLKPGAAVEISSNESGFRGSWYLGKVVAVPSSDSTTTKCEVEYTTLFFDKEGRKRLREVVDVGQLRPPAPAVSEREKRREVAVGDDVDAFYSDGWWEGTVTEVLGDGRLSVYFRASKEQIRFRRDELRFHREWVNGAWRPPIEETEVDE
# Target: RsAGDP1 AGD56
# Test: ITC
row,Binder,Kd
1,ARTKQTARKSTGGKA (monomethyl-lysine at K9) [H3K9me1 peptide (ITC)],50 µM
2,ARTKQTARKSTGGKA (dimethyl-lysine at K9) [H3K9me2 peptide (ITC)],26.2 µM
3,ARTKQTARKSTGGKA (trimethyl-lysine at K9) [H3K9me3 peptide (ITC)],52.9 µM

# Target: T1, RsAGDP1 AGD12 (residues 26–180)
# Test: ITC
row,Binder,Kd
1,ART[Lys(Me3)]QTAR[Lys(Me2)]STGGKA [H3K4me3K9me2 peptide],103 µM
2,ART[Lys(Me2)]QTAR[Lys(Me2)]STGGKA [H3K4me2K9me2 peptide],25.5 µM
3,ARTKQTARKSTGGKA (monomethyl-lysine at K9) [H3K9me1 peptide (ITC)],84.7 µM
4,ARTKQTARKSTGGKA (trimethyl-lysine at K9) [H3K9me3 peptide (ITC)],101 µM
5,ART[Lys(Me)]QTAR[Lys(Me2)]STGGKA [H3K4me1K9me2 peptide],23.4 µM

# Target: RsAGDP1 AGD34
# Test: ITC
row,Binder,Kd
1,ARTKQTARKSTGGKA (monomethyl-lysine at K9) [H3K9me1 peptide (ITC)],10.1 µM
2,ARTKQTARKSTGGKA (trimethyl-lysine at K9) [H3K9me3 peptide (ITC)],10.7 µM
